# From publication doi:10.1101/2024.01.26.576347
# How the values were obtained:
# [1] = biological target: α-tubulin (human (endogenous in VTC-037 GSCs)) (UniProt P68363); assay: cellular thermal shift assay
# [2] = biological target: β-tubulin (human (endogenous in VTC-001 and VTC-037 GSCs)) (UniProt P07437); assay: cellular thermal shift assay
# α-tubulin (human (endogenous in VTC-037 GSCs)), sequence (P68363 whole entry): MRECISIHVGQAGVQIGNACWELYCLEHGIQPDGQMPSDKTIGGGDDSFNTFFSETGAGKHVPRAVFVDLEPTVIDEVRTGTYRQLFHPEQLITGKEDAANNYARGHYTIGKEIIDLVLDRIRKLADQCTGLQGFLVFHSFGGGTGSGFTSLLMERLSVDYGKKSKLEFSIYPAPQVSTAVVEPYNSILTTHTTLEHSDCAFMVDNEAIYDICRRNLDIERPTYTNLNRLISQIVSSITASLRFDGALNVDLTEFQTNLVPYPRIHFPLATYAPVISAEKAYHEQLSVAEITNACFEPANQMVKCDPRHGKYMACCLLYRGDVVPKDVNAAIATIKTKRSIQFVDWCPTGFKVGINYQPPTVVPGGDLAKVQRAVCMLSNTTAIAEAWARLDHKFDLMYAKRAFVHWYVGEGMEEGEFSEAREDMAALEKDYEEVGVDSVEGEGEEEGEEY
substance,measurement,setting,value
"JM2 (juxtamembrane 2), Cx43 mimetic peptide (from UniProt P17302 231-245)",EC50,[1],8.4 nM
same,EC50,[2],7.9 nM
